Reference: patent publication US20210095032A1 (SALUBRIS CHENGDU BIOTECH, published 2021)
Substitutions are numbered along the chain they refer to. Like-named read-outs stand apart in the source and are kept apart here.

Assays:
[1] = target: T1, biotin-labeled human PD-1 Fc protein (human, biotin-labeled (site not stated)); test: capture ELISA, antibody captured on plate, biotin-labeled human PD-1 Fc in solution
T1 construct: also called PD-1-Fc-biotin
Experimental: (§1) Plates were washed 4 times with wash buffer (PBS+0.05% Tween-20, PBST) and then blocked with 200 μl/well blocking buffer (5% w/v non-fatty milk in PBST) for 2 hours at 37° C. […] After a final wash, plates were incubated with 100 μl/well ELISA substrate TMB (Innoreagents). The reaction was stopped in 15 minutes at 25° C. with 50 μl/well 1M H₂SO₄, and the absorbance was read at 450 nm. Data were analyzed using Graphpad Prism software and EC₅₀ values were reported.

[2] = target: T1, biotin-labeled human PD-1 Fc protein; test: as above; remark: listed apart in the source
Experimental: as §1

[3] = target: T1, biotin-labeled human PD-1 Fc protein; test: competition ELISA, antibody + biotin human PD-1-Fc on coated human PD-L1-Fc (competitor PD-L1-Fc)
Experimental: (§2) The next day, plates were washed with wash buffer (PBS+0.05% Tween-20, PBST), and blocked with 5% non-fatty milk in PBST for 2 hours at 37° C. Plates were then washed again using wash buffer.
(§3) After incubation at 37° C. for 40 minutes, plates were washed for 4 times using wash buffer. […] Plates were washed again using wash buffer. Finally, TMB was added and the reaction was stopped using 1M H₂SO₄, and the absorbance was read at 450 nm. Data were analyzed using Graphpad Prism software and IC₅₀ values were reported.

[4] = target: T2, human PD-1 on PD-1 Effector Cell Line (Genscript, GS-J2/PD-1) (human, UniProt Q15116 25-288); test: cell-based or functional assay
[5] = target: T1, biotin-labeled human PD-1 Fc protein; test: capture ELISA, antibody captured on plate, biotin-labeled human PD-1 Fc in solution; remark: listed apart in the source
Experimental: as §1

[6] = target: T1, biotin-labeled human PD-1 Fc protein; test: competition ELISA, antibody + biotin human PD-1-Fc on coated human PD-L1-Fc (competitor PD-L1-Fc); remark: listed apart in the source
Experimental: as §2, §3

[7] = target: T1, biotin-labeled human PD-1 Fc protein; test: capture ELISA, antibody captured on plate, biotin-labeled human PD-1 Fc in solution; remark: listed apart in the source
Experimental: as §1

[8] = target: T1, biotin-labeled human PD-1 Fc protein; test: as above; remark: listed apart in the source
Experimental: as §1

[9] = target: T2, human PD-1 on PD-1 Effector Cell Line …; test: cell-based or functional assay; remark: listed apart in the source
[10] = target: T1, biotin-labeled human PD-1 Fc protein; test: capture ELISA, antibody captured on plate, biotin-labeled human PD-1 Fc in solution; remark: listed apart in the source
Experimental: as §1

[11] = target: T1, biotin-labeled human PD-1 Fc protein; test: as above; remark: listed apart in the source
Experimental: as §1

[12] = target: T1, biotin-labeled human PD-1 Fc protein; test: competition ELISA, antibody + biotin human PD-1 Fc on coated Nivolumab (competitor Nivolumab)
Experimental: (§4) The next day, plates were washed with wash buffer, and blocked with 5% non-fatty milk in PBST for 2 hours at 37° C. […] Plates were finally washed using wash buffer. TMB was added and the reaction was stopped using 1M H₂SO₄, and the absorbance was read at 450 nm. Data were analyzed using Graphpad Prism software and IC₅₀ values were reported.

[13] = target: T1, biotin-labeled human PD-1 Fc protein; test: as above; remark: listed apart in the source
Experimental: as §4

[14] = target: T3, cynomolgus monkey PD-1-his protein (Acro biosystems, #PD-1-05223) (cynomolgus monkey, UniProt B0LAJ3 25-170); test: SPR (Biacore), antibody captured, cynomolgus PD-1-his flowed
T3 construct: Bought protein; also called Cynomolgus PD-1; Cynomolgus PD1
Source text: (§5) Briefly, goat anti-mouse IgG (GE healthcare, Cat #BR100839, Human Antibody Capture Kit) was covalently linked to a CMS chip (carboxy methyl dextran coated chip) via primary amines, using a standard amine coupling kit (GE healthcare, Pittsburgh, Pa., USA) provided by Biacore. Un-reacted moieties on the biosensor surface were blocked with ethanolamine. […] Then, recombinant human PD-1-his (Sino biological, #10377-H08H) or cynomolgus monkey PD-1-his protein (Acro biosystems, #PD-1-05223) in HBS EP buffer (provided by Biacore) was flowed onto the chip at a flow rate of 30 μL/min. The antigen-antibody association kinetics was followed for 2 minutes and the dissociation kinetics was followed for 10 minutes. The association and dissociation curves were fit to a 1:1 Langmuir binding model using BIA evaluation software.

[15] = target: T4, recombinant human PD-1-his (Sino biological, #10377-H08H) (human, UniProt Q15116 25-167); test: SPR (Biacore), antibody captured, human PD-1-his flowed
T4 construct: Bought protein; also called Human PD-1-his protein; not shown: his tag
Source text: as §5

B1: huD2A4-V1 (antibody, human IgG1, kappa)
heavy: not shown
light: DIQMTQSPSSVSASVGDRVTITCLASQTIGTWLAWYQQKPGKSPKLLIYAATSLADGVPSRFSGSGSGTDFTLTISSLQPEDFATYYCQQVSSIPWTFGGGTKVEIKRTVAAPSVFIFPPSDEQLKSGTASVVCLLNNFYPREAKVQWKVDNALQSGNSQESVTEQDSKDSTYSLSSTLTLSKADYEKHKVYACEVTHQGLSSPVTKSFNRGEC
notes: Humanized D2A4, human IgG1/kappa
An EC50 [1] of 0.385 ng/mL was found for B1 in this work.

B2: huD2A4-V5 (antibody, human IgG1, kappa)
heavy: not shown
light: B1 light
notes: as for B1
An EC50 [2] of 0.773 ng/mL was found for B2 in this work.

B3: huD2A4-V2 (antibody, human IgG1, kappa)
heavy: not shown
light: B1 light
notes: as for B1
An EC50 [1] of 0.379 ng/mL was found for B3 in this work.

B4: huD2A4-V4 (antibody, human IgG1, kappa, V domains shown)
VH: EVQLVESGGGLVQPGGSLRLSCAASGFTFSSYTMSWVRQAPGKGLEWVATISGGGSNTYYPDSVKGRFTISRDNSKNTLYLQMNSLRAEDTAVYYCARQAFYSNYWYFDVWGAGTTVTVSS
VL: DIQMTQSPSSVSASVGDRVTITCLASQTIGTWLAWYQQKPGKAPKLLIYAATSLADGVPSRFSGSGSGTDFTLTISSLQPEDFATYYCQQVSSIPWTFGGGTKVEIKR
notes: as for B1
An EC50 [1] of 0.349 ng/mL was found for B4 in this work.

B5: huD2A4-V3 (antibody, human IgG1, kappa)
heavy: not shown
light: B1 light
notes: as for B1
An EC50 [1] of 0.55 ng/mL was found for B5 in this work.

B6: chimeric D2H3 antibody (antibody, human IgG1, kappa, V domains shown)
VH: EVQLQQSGTVLARPGASVKMSCKSSGYTFTNYWMHWVKQRPGQGLEWIGAIFPRNSETNYNQKFKAKAKLTAVTSASTAYMEVSSLTSEDSAVYFCTRNRYGLDYWGQGTSVTVSS
VL: DIVLTQSPGFLAVSLGQRATISCRASESVSLHGTRLMHWYHQKPGQPPKLLISLGSNLESGVPARFSGSGSETDFTLNIHPVEEEDAATYFCQQSIEDPWTFGGGTKLEIKR
notes: Mouse variable domains cloned in frame to human IgG1 and kappa constant regions; also called chD2H3
B6 was tested, and the IC50 [3] was 0.74 nM, the “Cell-based functional reporter assay (IC50, nM)” value [4] was 5.36 nM and the EC50 [5] was 1.51 ng/mL. For the same binder, the IC50 [6] was 0.74 nM, the EC50 [7] was 0.31 ng/mL and the EC50 [8] was 1.04 ng/mL. For the same binder, the “Cell-based functional assay (EC50, nM)” value [9] was 5.36 nM, the EC50 [10] was 0.17 nM and the EC50 [11] was 0.17 nM. It also gave an IC50 [12] of 0.19 nM, an IC50 [13] of 0.19 nM and a Kd [14] of 1.78 nM. It also gave a Kd [15] of 0.441 nM.

B7: huD2H3-V1 (antibody, human IgG1, kappa)
heavy: not shown
light: DIVLTQSPDSLAVSLGERATINCRASESVSLHGTRLMHWYQQKPGQPPKLLISLGSNLESGVPDRFSGSGSETDFTLTISSLQAEDVAVYFCQQSIEDPWTFGQGTKLEIKRTVAAPSVFIFPPSDEQLKSGTASVVCLLNNFYPREAKVQWKVDNALQSGNSQESVTEQDSKDSTYSLSSTLTLSKADYEKHKVYACEVTHQGLSSPVTKSFNRGEC
notes: Humanized D2H3, human IgG1/kappa
An EC50 [8] of 0.28 ng/mL was found for B7 in this work.

B8: huD2H3-V9 (antibody, human IgG1, kappa, V domains shown)
VH: EVQLVQSGAEVKKPGSSVKVSCKSSGYTFTNYWMHWVRQAPGQGLEWIGAIFPRNSETNYNQKFKARATLTADTSTSTAYMELSSLRSEDTAVYFCTRNRYGLDYWGQGTLVTVSS
VL: DIVLTQSPDSLAVSLGERATINCRASESVSLHGTRLMHWYQQKPGQPPKLLIYLGSNLESGVPDRFSGSGSETDFTLTISSLQAEDVAVYFCQQSIEDPWTFGQGTKLEIKR
notes: as for B7
An EC50 [5] of 0.358 ng/mL was found for B8 in this work.

B9: huD2H3-V14 (antibody, human IgG1, kappa, V domains shown)
VH: B8 VH with S24A, I48M, A68V, L70I, T74E, F95Y
VL: B8 VL with L4M, E72G, F91Y
notes: as for B7
B9 was tested, and the IC50 [6] was 0.68 nM, the EC50 [7] was 0.531 ng/mL and the “Cell-based functional assay (EC50, nM)” value [9] was 7.11 nM. It also gave an EC50 [11] of 0.17 nM, an IC50 [12] of 0.18 nM and a Kd [14] of 1.5 nM. It also gave a Kd [15] of 0.308 nM.

B10: huD2H3-V11 (antibody, human IgG1, kappa, V domains shown)
VH: B8 VH
VL: B8 VL with Y53S, F91Y
notes: as for B7
An EC50 [5] of 0.17 ng/mL was found for B10 in this work.

B11: huD2H3-V6 (antibody, human IgG1, kappa, V domains shown)
VH: B8 VH with T74E
VL: B8 VL with Y53S
notes: as for B7
An EC50 [8] of 0.17 ng/mL was found for B11 in this work.

B12: huD2H3-V2 (antibody, human IgG1, kappa, V domains shown)
VH: B8 VH with S24A
VL: B8 VL with Y53S
notes: as for B7
An EC50 [8] of 0.21 ng/mL was found for B12 in this work.

B13: huD2H3-V12 (antibody, human IgG1, kappa, V domains shown)
VH: B8 VH with S24A, I48M, A68V, L70I, T74E, F95Y
VL: B8 VL with Y53S
notes: Humanized D2H3, human IgG1/kappa; also called huPD1-D2H3-V12
An EC50 [7] of 0.354 ng/mL was found for B13 in this work.

B14: huD2H3-V5 (antibody, human IgG1, kappa, V domains shown)
VH: B8 VH with L70I
VL: B8 VL with Y53S
notes: as for B7
An EC50 [8] of 0.32 ng/mL was found for B14 in this work.

B15: huD2H3-V10 (antibody, human IgG1, kappa, V domains shown)
VH: B8 VH
VL: B8 VL with Y53S, E72G
notes: as for B7
An EC50 [5] of 0.505 ng/mL was found for B15 in this work.

B16: huD2H3-V4 (antibody, human IgG1, kappa, V domains shown)
VH: B8 VH with A68V
VL: B8 VL with Y53S
notes: as for B7
An EC50 [8] of 0.28 ng/mL was found for B16 in this work.

B17: huD2H3-V3 (antibody, human IgG1, kappa, V domains shown)
VH: B8 VH with I48M
VL: B8 VL with Y53S
notes: as for B7
An EC50 [8] of 0.19 ng/mL was found for B17 in this work.

B18: huD2H3-V7 (antibody, human IgG1, kappa, V domains shown)
VH: B8 VH with F95Y
VL: B8 VL with Y53S
notes: as for B7
An EC50 [5] of 0.157 ng/mL was found for B18 in this work.

B19: huD2H3-V8 (antibody, human IgG1, kappa)
heavy: not shown
light: B7 light with L4M
notes: as for B7
An EC50 [5] of 0.171 ng/mL was found for B19 in this work.
